Assay results reported in US20210292423A1 (published 2021).

Columns and labels:
[1] = biological target: T1, human CD123 (IL3RA) on cells (human, UniProt P26951 19-378); assay: cell-based or functional assay
[2] = biological target: T2, human CD3ε/δ-Fc fusion protein (soluble recombinant CD3ε/δ complex) (human, UniProt P04234 22-105); assay: SPR Biacore
T2 construct: also called huCD3ε/δ; huCD3; not shown: hinge, CH2, CH3 of human IgG with tag

[3] = biological target: T3, human CD123 Strep-II tagged Fc-fusion protein (human); assay: SPR Biacore
T3 construct: also called human CD123-Fc; recombinant CD123

[4] = biological target: T1, human CD123 (IL3RA) on cells; assay: cell-based or functional assay; remark: listed apart in the source

T1 sequence (P26951 19-378): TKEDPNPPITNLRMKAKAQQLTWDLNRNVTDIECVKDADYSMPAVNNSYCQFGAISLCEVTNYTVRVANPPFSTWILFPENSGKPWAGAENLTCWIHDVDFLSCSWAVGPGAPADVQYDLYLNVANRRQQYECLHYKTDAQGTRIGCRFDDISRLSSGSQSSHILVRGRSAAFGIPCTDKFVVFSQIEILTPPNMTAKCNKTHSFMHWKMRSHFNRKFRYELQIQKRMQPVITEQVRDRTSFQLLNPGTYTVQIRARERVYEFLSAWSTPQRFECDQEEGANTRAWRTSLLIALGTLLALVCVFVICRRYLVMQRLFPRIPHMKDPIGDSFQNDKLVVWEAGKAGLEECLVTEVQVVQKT
T3 sequence (chain, as listed by the source limits assumed): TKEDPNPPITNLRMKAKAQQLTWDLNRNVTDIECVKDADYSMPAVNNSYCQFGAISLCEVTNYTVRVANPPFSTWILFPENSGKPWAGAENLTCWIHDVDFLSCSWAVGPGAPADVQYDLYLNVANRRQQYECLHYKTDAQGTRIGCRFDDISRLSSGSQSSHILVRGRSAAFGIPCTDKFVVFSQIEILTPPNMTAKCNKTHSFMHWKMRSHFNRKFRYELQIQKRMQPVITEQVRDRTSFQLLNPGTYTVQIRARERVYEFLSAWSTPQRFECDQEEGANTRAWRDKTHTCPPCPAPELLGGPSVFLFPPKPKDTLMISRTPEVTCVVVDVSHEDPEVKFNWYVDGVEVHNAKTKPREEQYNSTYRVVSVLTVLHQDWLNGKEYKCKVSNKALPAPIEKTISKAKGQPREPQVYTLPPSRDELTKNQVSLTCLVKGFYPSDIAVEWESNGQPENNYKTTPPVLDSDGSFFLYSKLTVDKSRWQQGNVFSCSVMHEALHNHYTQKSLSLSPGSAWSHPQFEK
T2 sequence (chain, as listed by the source mutant, chain 1 of 2): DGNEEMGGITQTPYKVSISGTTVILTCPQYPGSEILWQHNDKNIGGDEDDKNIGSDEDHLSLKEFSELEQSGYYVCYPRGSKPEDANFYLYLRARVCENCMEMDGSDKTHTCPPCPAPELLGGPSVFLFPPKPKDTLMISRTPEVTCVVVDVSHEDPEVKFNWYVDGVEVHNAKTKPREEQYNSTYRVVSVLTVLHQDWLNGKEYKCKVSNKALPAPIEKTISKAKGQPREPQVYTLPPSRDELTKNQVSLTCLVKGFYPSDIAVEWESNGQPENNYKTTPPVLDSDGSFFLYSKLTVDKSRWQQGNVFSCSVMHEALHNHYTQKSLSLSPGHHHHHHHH
T2 sequence (P04234 22-105, stated change not applied, chain 2 of 2): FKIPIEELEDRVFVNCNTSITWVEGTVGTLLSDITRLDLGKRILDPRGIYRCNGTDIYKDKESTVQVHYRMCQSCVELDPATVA

Kd [2]: 7 nM
Kd [3]: 4.8 nM
B1: CODV-Fab hz4B4x3E3 antibody-like binding protein (bispecific antibody)
light: QFVLTQPNSVSTNLGSTVKLSCKRNTGNIGSNYVNWYQQHEGRSPTTMIYRDDKRPDGVPDRFSGSIDRSSNSALLTINNVQTEDEADYFCQSYSSGINIIFGGGTKLTVLGQPKAAPDVVMTQTPVSLSVSVGGRVSISCRSSQSLVHDNGNTYLSWSLQKPGKSPKVLIYKVSNRFSGVSSRFTGSGSGTDFTLKISSVQPDDLGVYYCGQGTQYPFTFGSGTKLEIKTKGPSRTVAAPSVFIFPPSDEQLKSGTASVVCLLNNFYPREAKVQWKVDNALQSGNSQESVTEQDSKDSTYSLSSTLTLSKADYEKHKVYACEVTHQGLSSPVTKSFNRGEC
heavy: QVQLVETGGGLVKPGQSLKLTCATSGFTFSNAWMHWVRQSPEKGLEWVAQIKARSNNYATYYAESVKGRFTISRDDSKSTIYLQMNSLTPEDTAIYYCRGTYYASKPFDYWGQGVMVTVSSSQVQLQESGPGLVQPSQTLSLTCTVSGFSLTTYDVHWVRQPPGKGLEWMGRIQNGGITDYNSALKSRLIISRDTSKSQVFLKMNSVQTEDTAMYFCAKTGSYFYAFDHWGQGTLVTVSSRTASTKGPSVFPLAPSSKSTSGGTAALGCLVKDYFPEPVTVSWNSGALTSGVHTFPAVLQSSGLYSLSSVVTVPSSSLGTQTYICNVNHKPSNTKVDKKVEPKSCDKTHTHHHHHH
notes: also called hz4B4 × 3E3 CODV-Fab
Cytotoxic assay (THP cells) EC50 [pM] [1]: 26.5 pM
Cytotoxicity (THP-1) geomean EC50 [4]: 2 ng/mL
Cytotoxicity (THP-1) geomean EC50 [pM] [4]: 26.5 pM
